From patent US20200317768A1 (published 2020)
Positions count from the first letter of the chain named.

T1: human FcγRIIaH extracellular domain, C-terminal His-tag (human, UniProt P12318 34-217)
T1 construct: Soluble extracellular domain expressed in FreeStyle 293 cells; also called FcgRIIaH; human FcγRIIa (type H); not shown: His-tag added to the C-terminus
T1 sequence: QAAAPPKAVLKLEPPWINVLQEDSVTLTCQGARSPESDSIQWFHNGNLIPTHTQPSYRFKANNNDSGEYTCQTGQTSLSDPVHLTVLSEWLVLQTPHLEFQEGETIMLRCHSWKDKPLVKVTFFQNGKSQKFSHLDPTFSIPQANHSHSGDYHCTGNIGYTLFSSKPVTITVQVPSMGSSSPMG

T2: human FcγRIIaR extracellular domain, C-terminal His-tag (human, UniProt P12318 34-217)
T2 construct: Soluble extracellular domain expressed in FreeStyle 293 cells; also called FcgRIIaR; human FcγRIIa (type R); not shown: His-tag added to the C-terminus
T2 chain: T1 sequence with H134R

T3: human FcγRIIb extracellular domain, C-terminal His-tag (human, UniProt P31994 43-217)
T3 construct: Soluble extracellular domain expressed in FreeStyle 293 cells; also called FcgRIIb; not shown: His-tag added to the C-terminus
T3 sequence: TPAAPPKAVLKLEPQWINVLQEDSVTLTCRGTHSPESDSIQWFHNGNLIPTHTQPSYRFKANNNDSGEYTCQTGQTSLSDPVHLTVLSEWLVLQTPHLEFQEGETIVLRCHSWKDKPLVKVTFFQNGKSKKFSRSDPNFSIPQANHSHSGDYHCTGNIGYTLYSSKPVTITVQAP

B1: MS103240H795-TT69/M103202L1045-SK1 (antibody)
heavy: QVQLVESGGGLVQPGGSLRLSCAVSGIDLSHDDISWVRQAPGKGLEWVSIISYAGSTYYASWAKGRLTISKDTSKNQVVLTMTNMDPVDTATYYCARGVPAYSHGGDLWGQGTLVTVSSASTKGPSVFPLAPSSKSTSGGTAALGCLVKDYFPEPVTVSWNSGALTSGVHTFPAVLQSSGLYSLSSVVTVPSSSLGTQTYICNVNHKPSNTKVDKKVEPKSCDKTHTCPPCPAPELLGGDSVFLFPPKPKDVLMISRTPEVTCVVVDVSHEDPEVKFNWYVDGVEVHNAKTKPREEQYNSTYRVVSVLPVLHRDWLNGKEYKCKVSNKALPKPIEKTISKAKGQPREPQVYTLPPSREEMTKNQVSLTCLVKGFYPSDIAVEWESNGQPENNYKTTPPVLDSDGSFFLYSKLTVKKSRWQQGNVFSCSVLHEALHAHTTRKELSLSP
light: DIVMTQSPATLSLSPGERATLSCTTSQSVYHENWLSWFQQKPGQPPKLLIYWASTLAYGVPSRFSGSGSGTDFTLTISSLQPEDAATYYCAGGYGGGRYAFGQGTKVEIKRTVAAPSVFIFPPSDEQLKSGTASVVCLLNNFYPREAKVQWKVDNALQSGNSQESVTEQDSKDSTYSLSSTLTLSKADYEKHKVYACEVTHQGLSSPVTKSFNRGEC
notes: copies: 2 + 2
B2: MS103240H795-TT93/M103202L1045-SK1 (antibody)
heavy: B1 heavy with L236Y, V266I
light: B1 light
notes: copies: 2 + 2
B3: MS103240H795-TT91/M103202L1045-SK1 (antibody)
heavy: B1 heavy with L236Y, V266I, P345R, K415D
light: B1 light
B4: MS103240H795-TT72/M103202L1045-SK1 (antibody)
heavy: B1 heavy with V266I, L430M, T438Y
light: B1 light
notes: copies: 2 + 2
B5: MS103240H795-TT70/M103202L1045-SK1 (antibody)
heavy: B1 heavy with V266I, P345R, K415D, L430M, T438Y
light: B1 light
B6: MS103240H795-TT92/M103202L1045-SK1 (antibody)
heavy: B1 heavy with L236Y, V266I, L430M, T438Y
light: B1 light
notes: copies: 2 + 2
B7: MS103240H795-TT73/M103202L1045-SK1 (antibody)
heavy: B1 heavy with V266I
light: B1 light
notes: copies: 2 + 2
B8: MS103240H795-TT71/M103202L1045-SK1 (antibody)
heavy: B1 heavy with V266I, P345R, K415D
light: B1 light
B9: MS103240H795-TT90/M103202L1045-SK1 (antibody)
heavy: B1 heavy with L236Y, V266I, P345R, K415D, L430M, T438Y
light: B1 light

What was measured:
[1] = molecular target: T1, human FcγRIIaH extracellular domain, …; assay: SPR (BIACORE); KD of SG1 divided by KD of the variant
Protocol: (§1) The kinetic analysis of interactions between these antibodies and FcγR was carried out using BIACORE® T200 or BIACORE® 4000 (GE Healthcare). HBS-EP+ (GE Healthcare) was used as the running buffer, and the measurement temperature was set to 25° C. A chip produced by immobilizing Protein A. Protein A/G or mouse anti-human IgG kappa light chain (BD Biosciences) onto a Series S Sensor Chip CM4 or CM5 (GE Healthcare) by the amine-coupling method was used. […] After the measurement, the antibody captured on the chip was washed off by allowing reaction with 10 mM glycine-HCl, pH1.5 and 25 mM NaOH so that the chip was regenerated and used repeatedly. The sensorgrams obtained as measurement results were analyzed by the 1:1 Langmuir binding model using the BIACORE® Evaluation Software to calculate the binding rate constant ka (L/mol/s) and dissociation rate constant kd (l/s), and the dissociation constant KD (mol/L) was calculated from these values. […] Regarding such interactions, KD values were calculated using the following 1:1 binding model described in BIACORE® T100 Software Handbook BR1006-48 Edition AE.
(§2) Furthermore, the substitutions used in Example 29 for improving antibody half-life and reducing binding to rheumatoid factor were introduced into human FcγRIIb-enhanced Fc variants and their affinity against human FcγRs were analyzed (Table 29). In this SPR analysis, all the data were obtained using mouse anti-human IgG kappa light chain for capturing the antibodies of interest.

[2] = molecular target: T2, human FcγRIIaR extracellular domain, …; assay: as above
Protocol: as §1, §2

[3] = molecular target: T3, human FcγRIIb extracellular domain, …; assay: as above
Protocol: as §1, §2

[4] = molecular target: T4, human FcγRIIIaV extracellular domain, C-terminal His-tag (human, UniProt P08637 17-208); assay: as above
T4 construct: Soluble extracellular domain expressed in FreeStyle 293 cells; also called FcgRIIIaV; not shown: His-tag added to the C-terminus
T4 sequence (P08637 17-208 F176V): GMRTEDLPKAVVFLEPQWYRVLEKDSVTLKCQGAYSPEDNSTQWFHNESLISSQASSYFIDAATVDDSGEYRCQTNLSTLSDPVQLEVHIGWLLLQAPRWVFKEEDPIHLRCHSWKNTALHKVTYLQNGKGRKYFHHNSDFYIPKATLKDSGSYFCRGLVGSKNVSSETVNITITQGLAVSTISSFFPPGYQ
Protocol: as §1, §2

[5] = molecular target: T1, human FcγRIIaH extracellular domain, …; assay: SPR (BIACORE), antibody captured by mouse anti-human IgG kappa light chain, FcgR extracellular domain as analyte, 25 C
Protocol: as §1, §2

[6] = molecular target: T2, human FcγRIIaR extracellular domain, …; assay: as above
Protocol: as §1, §2

[7] = molecular target: T3, human FcγRIIb extracellular domain, …; assay: as above
Protocol: as §1, §2

[8] = molecular target: T4, human FcγRIIIaV extracellular domain, …; assay: as above
Protocol: as §1, §2

Row | Binder | KD fold for humanFcgRs (SG1 = 1) [1] | KD fold for humanFcgRs (SG1 = 1) [2] | KD fold for humanFcgRs (SG1 = 1) [3] | KD fold for humanFcgRs (SG1 = 1) [4] | Kd [5] | Kd [6] | Kd [7] | Kd [8]
1 | B1 | 0.008 fold | 0.04 fold | 4.3 fold | 0.001 fold | 130 µM | 34 µM | 1.1 µM | 530 µM
2 | B2 | 0.019 fold | 0.05 fold | 15.2 fold | 0.002 fold | 52 µM | 24 µM | 0.31 µM | 470 µM
3 | B3 | 0.021 fold | 0.04 fold | 14.7 fold | 0.002 fold | 46 µM | 30 µM | 0.32 µM | 450 µM
4 | B4 | 0.012 fold | 0.05 fold | 11.8 fold | 0.001 fold | 79 µM | 24 µM | 0.4 µM | 500 µM
5 | B5 | 0.013 fold | 0.03 fold | 12.7 fold | 0.002 fold | 72 µM | 40 µM | 0.37 µM | 390 µM
6 | B6 | 0.024 fold | 0.06 fold | 16.8 fold | 0.001 fold | 40 µM | 20 µM | 0.28 µM | 490 µM
7 | B7 | 0.013 fold | 0.06 fold | 11.2 fold | 0.001 fold | 74 µM | 19 µM | 0.42 µM | 550 µM
8 | B8 | 0.01 fold | 0.04 fold | 11.2 fold | 0.002 fold | 96 µM | 27 µM | 0.42 µM | 400 µM
9 | B9 | 0.033 fold | 0.05 fold | 15.7 fold | 0.002 fold | 29 µM | 25 µM | 0.3 µM | 360 µM
